Test results from PMC5316805, “Potent single-domain antibodies that arrest respiratory syncytial virus fusion protein in its prefusion state” (Nature Communications, 2017).

Legend:
[1] = biological target: RSV A2 F, full length, on RSV A2-infected cells and virions (human respiratory syncytial virus A2, UniProt P03420); test: cell-based or functional assay
[2] = biological target: T1, prefusion-stabilized RSV F (DS-Cav1) with a C-terminal Strep-tag II and 6X HisTag (human respiratory syncytial virus A2 …, stabilised); test: SPR; DS-Cav1 captured by its His tag on an NTA chip to ~530 RU each cycle (Biacore X100); VHH 2-fold dilutions 5 nM to 39.1 pM in HBS-P+; double-reference subtracted, 1:1 binding model (Scrubber); conditions: both partners purified
T1 construct: RSV fusion (F) protein, F2 subunit (N-terminal cut product of F0) of DS-Cav1; RSV fusion (F) protein, soluble part of the F1 subunit (C-terminal cut product of F0) of DS-Cav1; also called prefusion F; prefusion RSV F; source: purified; not shown: Strep-tag II, C-terminal, kept; His6, C-terminal, kept; copies: 3 + 3

Row | Binder | plaque-reduction neutralisation of RSV A2 and RSV B49 on Vero cells, IC50 [1] [nM] | Kd [2] [nM] | koff [2] [s⁻¹] | kon [2] [M⁻¹ s⁻¹]
1 | F-VHH-4 (VHH, llama VHH; also in PDB 5TP3 and 5TOJ; Disulfide between Cys50 (CDR2) and Cys100c (CDR3), Kabat numbering; the Pichia-made protein was used in the complex crystals; also called clone 4; source: P. pastoris GS115, secreted, purified (ammonium sulfate precipitation, HisTrap HP, Superdex 75); not shown: His6, C-terminal, kept) VHH: QVQLQESGGGLVQPGGSLRLSCAASGFTLDYYYIGWFRQAPGKEREAVSCISGSSGSTYYPDSVKGRFTISRDNAKNTVYLQMNSLKPEDTAVYYCATIRSSSWGGCVHYGMDYWGKGTQVTVSS | < 0.1 | < 0.018 | < 1e-05 | 570000
2 | F-VHH-L66 (VHH, llama VHH; also in PDB 5TOK; Disulfide between Cys50 (CDR2) and Cys100c (CDR3), Kabat numbering; source: P. pastoris GS115, secreted, purified (ammonium sulfate precipitation, HisTrap HP, Superdex 75); not shown: His6, C-terminal, kept) VHH: QVQLQESGGGLVQPGGSLRLSCAASGFTLDYYYIGWFRQAPGKEREGVSCISSSHGSTYYADSVKGRFTISRDNAKNTVYLQMNSLKPEDTAVYYCATVAVAHFRGCGVDGMDYWGKGTQVTVSS | < 0.1 | 0.154 | 5e-05 | 330000
